Substitutions are numbered along the chain they refer to.
B1: SCT-Fa053 (antibody, V domains shown)
VH: EVQLQQSGPVLVKPGASVKMSCKASGYSFTGYHMNWVKQSHGKSLEWIGIINPYNSATTYNQKFKGKATLTVDKSSSTAYMELNSLTSEDSVVYYCVRGAYGNPLDYWGQGTTLTVSS
VL: DIKMTQSPSSMYASLGERVTITCKASQDINSYLSWFQQKPGKSPKTLIYRANRLVDGVPSRFSGSGSGQDYSLTISSLEYEDMGIYYCLQYDEYPYTFGGGTKLEIK
notes: murine IgG
B2: SCT-Fa055 (antibody, V domains shown)
VH: EVQLQQSGPVLVKPGASVKMSCKASGYTFTDYHMNWVKQSHGKSLEWIGVISPYNGGTSQNQKFKGKATLTVDKSSSTAYMELNRLTSEDSAVYYCARSDYGSPLDYWGQGTTLTVSS
VL: B1 VL with S34R, T74N, Y94F
notes: murine IgG
B3: SCT-Fa052 (antibody, V domains shown)
VH: B1 VH with T58S
VL: B1 VL with A51T
notes: murine IgG
B4: SCT-Fa054 (antibody, V domains shown)
VH: B1 VH with L83V, V92L
VL: B1 VL with V55L
notes: murine IgG
B5: SCT-Fa059 (antibody, V domains shown)
VH: B1 VH with K23Q, A57G, T58I, K67R, S77D, E82D
VL: B1 VL with K3R, M11I, K45E, A51T
notes: murine IgG
B6: SCT-Fa061 (antibody, V domains shown)
VH: B1 VH with K13R, G42V, K63N
VL: B1 VL with Q38L, R61G
notes: murine IgG
B7: SCT-Fa003 (antibody, V domains shown)
VH: EGKLEESGGGLVQPGGSMKLSCAASGFTFSDAWMDWVRQSPKKGLEWVAEIRNKANKHSKHYAESVKGRFTISRDDSKSSVYLQMNSLRAEDTGIYYCSYDYIFAYWGQGTLVTVSA
VL: DVVMTQTPLSLPVSLGDQASISCRSSQSLVHSNGNTYLHWYLQKPGQSPKLLIYKVSNRFSGVPDRFSGSGSGTDFTLKISRVEAEDLGVYFCSQSTHVPWTFGGGTKLEIK
notes: murine IgG
B8: SCT-Fa072 (antibody, V domains shown)
VH: EVQLVESGGDLVKPGGSLKLSCAASGFTFSDYGMSWVRQTPDKRLEWVATISSGGSYTYYADSVKGRFTISRDNAKNTLYLQMSSLKSEDTAMYFCTRHEITTVLSTDYAMDYWGQGTSVTVSS
VL: B7 VL with N33I, S81I, V99I, I111L, K112R
notes: murine IgG
B9: SCT-Fa046 (antibody, V domains shown)
VH: EVQLQQSGPELVKPGASVKISCKASGYTFTDYNMHWVKQSHGKSLAWIGYIYPYNGGTGYNQKFKNKATLTVDDSSSTAYMDLRSLTSDDSAVYYCAREDYGSREWFAYWGQGTLVTVSA
VL: B7 VL with H39Y, W101L, G105A, I111L
notes: murine IgG
B10: SCT-Fa068 (antibody, V domains shown)
VH: EVQLQQSGTVLARPGASVKMSCKTSGYTFTRYWMHWVKQRPGQGLEWIGAIYPGNSDTNYNQKIKGKAKLTAVTTASTAYMELSSLTNEDSAVYYCTFYYGNYVNYWGQGTTLTVSS
VL: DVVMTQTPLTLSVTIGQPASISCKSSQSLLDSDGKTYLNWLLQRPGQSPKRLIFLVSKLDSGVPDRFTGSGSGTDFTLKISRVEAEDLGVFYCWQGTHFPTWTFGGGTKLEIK
notes: murine IgG
B11: SCT-Fa064 (antibody, V domains shown)
VH: B10 VH with G66D, Y99F
VL: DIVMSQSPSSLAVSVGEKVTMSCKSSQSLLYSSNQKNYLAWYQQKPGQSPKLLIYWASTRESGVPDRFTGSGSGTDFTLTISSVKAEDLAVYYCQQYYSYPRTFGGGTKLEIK
notes: murine IgG
B12: SCT-Fa063 (antibody, V domains shown)
VH: B10 VH with T30I, N59T, I64F, K67R, T75S, Y106F
VL: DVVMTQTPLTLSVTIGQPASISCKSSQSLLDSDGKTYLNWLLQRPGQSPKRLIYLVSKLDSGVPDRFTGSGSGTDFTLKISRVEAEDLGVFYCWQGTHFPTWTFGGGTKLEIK
notes: murine IgG
B13: SCT-Fa065 (antibody, V domains shown)
VH: B10 VH with S84I
VL: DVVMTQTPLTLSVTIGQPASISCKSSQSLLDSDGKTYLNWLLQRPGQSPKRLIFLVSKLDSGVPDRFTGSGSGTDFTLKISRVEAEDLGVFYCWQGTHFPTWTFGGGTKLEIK
notes: murine IgG
B14: SCT-Fa066 (antibody, V domains shown)
VH: B10 VH with V93A
VL: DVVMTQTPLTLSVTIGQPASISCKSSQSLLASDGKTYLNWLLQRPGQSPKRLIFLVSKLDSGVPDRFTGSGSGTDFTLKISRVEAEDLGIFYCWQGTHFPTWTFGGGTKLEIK
notes: murine IgG
B15: SCT-Fa067 (antibody, V domains shown)
VH: B10 VH
VL: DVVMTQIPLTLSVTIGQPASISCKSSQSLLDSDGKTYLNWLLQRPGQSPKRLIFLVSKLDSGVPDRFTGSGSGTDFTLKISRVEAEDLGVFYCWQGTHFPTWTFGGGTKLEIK
notes: murine IgG
B16: SCT-Fa062 (antibody, V domains shown)
VH: B10 VH with S25P
VL: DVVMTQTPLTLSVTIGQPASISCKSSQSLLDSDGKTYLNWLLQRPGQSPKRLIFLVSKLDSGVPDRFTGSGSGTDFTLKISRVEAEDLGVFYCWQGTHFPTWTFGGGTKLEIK
notes: murine IgG
B17: SCT-Fa069 (antibody, V domains shown)
VH: B10 VH with K65Q, G66D, Y99F
VL: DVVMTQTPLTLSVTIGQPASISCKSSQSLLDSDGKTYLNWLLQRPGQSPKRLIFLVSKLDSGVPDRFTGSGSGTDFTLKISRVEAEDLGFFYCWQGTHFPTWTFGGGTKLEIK
notes: murine IgG
B18: SCT-Fa050 (antibody, V domains shown)
VH: EVQLQQSGPMLVKPGASVKMSCKASGNTFTAFYMSWVKQSHGKSLEWIGVVNPYNGGAGYNQKFKGKATLTVDKSSSTAYMELNGLTSEDSAVYYCLLWEFAHWGQGTLVTVSA
VL: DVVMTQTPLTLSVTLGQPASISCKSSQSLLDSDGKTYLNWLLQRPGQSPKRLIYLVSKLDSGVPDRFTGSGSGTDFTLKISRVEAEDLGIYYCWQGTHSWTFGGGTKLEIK
notes: murine IgG
B19: SCT-Fa057 (antibody, V domains shown)
VH: EVQLQQSGPVLVKPGASVKMSCKASGYTFTDYYMNWVKQSHGKSLEWIGVINPYNGGTSYNQKFKGKATLTVDKSSSTAYMELNSLTSEDSAVYYCARGGDYDVNYSAMDYWGQGTSVTVSS
VL: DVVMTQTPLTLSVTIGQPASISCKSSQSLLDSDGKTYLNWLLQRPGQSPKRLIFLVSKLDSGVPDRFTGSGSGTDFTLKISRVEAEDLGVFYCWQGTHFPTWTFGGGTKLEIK
notes: murine IgG
B20: SCT-Fa047 (antibody, V domains shown)
VH: EVQLQQSGPELVKPGASVKISCKASGYTFTDYYMNWVKQSHGKSLEWIGDINLNNGGTVYNQKFRGKATLTVDKSSSTAYMELRSLTSEDSAVYYCEGLGGYWGQGTTLTVSS
VL: DVLMTQTPLSLPVSLGDQVSISCRSSQSIVHSNGNTYLEWYLQKPGQSPNLLIYKVANRLSGVPDRFSGSGSGTDFTLKISRVEAEDLGVYYCFQGSHVPFTFGSGTKLEIK
notes: murine IgG
B21: SCT-Fa048 (antibody, V domains shown)
VH: B20 VH with F29L, K43E, L53P, G57D, T58I, V59N, R65K, V72A
VL: B20 VL with V19A, S28T, K44T, N50K, A57S, L60I
notes: murine IgG
B22: SCT-Fa049 (antibody, V domains shown)
VH: B20 VH with A16S, F29L, K43E, L53P, G57D, T58I, V59N, R65K, V72A
VL: B20 VL with V19A, S28T, K44T, N50K, A57S, L60I
notes: murine IgG
B23: SCT-Fa023 (antibody, V domains shown)
VH: EVQLQQSGAELVKPGASVKLSCTASDFNIKDYYLHWVKQRTEQGLEWIGRIDPDDGETKYGPKFQGKATITADTSSNTAFLQLSSLTSEDTAVYFCSRSNPYYFDYWGQGTTLTVSS
VL: DIQMNQSPSSLSASLGDTITITCHVSQNINVWLSWYQQKPGNIPKLLIYKASNLHTGVTSRFSGSGAGTGFTLTISSLQPEDIATYYCQQGQNYPYTFGGGTKLEIK
notes: murine IgG
B24: SCT-Fa028 (antibody, V domains shown)
VH: EVQLQQSGAELVKPGASVKLSCTASGFNIKDYYMHWVKQRTDHGLEWIGRIDPDNGETKYAPKFQGKATITADTSSNTAYLQLGSLTSEDTAVYYCARSSPYYFDYWGQGTTLTVSS
VL: B23 VL with V25A, T59P, A67S, G68V, Y94F
notes: murine IgG
B25: SCT-Fa043 (antibody, V domains shown)
VH: B24 VH with K13R, D42E, H43Q, G56D, T58I, I70L, Y80S, G84S, S85G
VL: B23 VL with V25A, T59P, A67S, G68V, Y94I, K103Q
notes: murine IgG
B26: SCT-Fa035 (antibody, V domains shown)
VH: B23 VH with A24D, S25F, D26G, L34M, D54E, G61V, Q82H, S84T, F95Y, S97A
VL: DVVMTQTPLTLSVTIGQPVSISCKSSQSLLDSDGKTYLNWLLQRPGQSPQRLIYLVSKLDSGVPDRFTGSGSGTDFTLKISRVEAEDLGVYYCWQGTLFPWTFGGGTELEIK
notes: murine IgG
B27: SCT-Fa026 (antibody, V domains shown)
VH: B24 VH with Y32F, K38H, D42E, H43K, D54E, N55D, E57K, G84S, S100N, Y103F
VL: B23 VL with V25A, N28T, T59P, A67S, T74N, Q89H, N93S
notes: murine IgG
B28: SCT-Fa034 (antibody, V domains shown)
VH: B23 VH with A24D, S25F, D26G, L34M, D54E, G61V, Q82H, S84T, F95Y, S97A
VL: B23 VL with I19V, V25A, N28T, T59P, A67S
notes: murine IgG
B29: SCT-Fa027 (antibody, V domains shown)
VH: B24 VH with M34I, H43Q
VL: B23 VL with V25A, T59P, A67S, G68V, Y94F, K107I
notes: murine IgG
B30: SCT-Fa031 (antibody, V domains shown)
VH: B23 VH with D26G, L34M, D54E, G61V, Q82H, S84T, F95Y, S97A
VL: B23 VL with I19V, V25A, N28T, T59P, A67S
notes: murine IgG
B31: SCT-Fa038 (antibody, V domains shown)
VH: EVQLQQSGAELVKPGASVKLSCTVSGFNIKDYYMHWVKQRTEQGLEWIGRIDPENDKIKYAPKFQGKATITADTSSNTVYLQLSSLTSEDTAVYYCARSNPYFFDYWGQGTTLTVSS
VL: B23 VL with V25A, N28T, T59P, A67S, T74N, Q89H, N93S
notes: murine IgG
B32: SCT-Fa033 (antibody, V domains shown)
VH: EVQLQQSGAELVKPGASVKLSCTASGFNIKDYYMHWVRQRTEQGLEWIGRIDPEDGETKYAPKFQGKATITAATSSNTPYLQLSGLTSEDTAVYYCGRSNPYYFDYWGQGTTLTVSS
VL: B23 VL with T18R, T22N, V25A, T59P, A67S, G68V, G70V
notes: murine IgG
B33: SCT-Fa030 (antibody, V domains shown)
VH: B32 VH with R38K, A73D, P79A, Y80S, G85S, G97A, Y103F, T112P
VL: B23 VL with V25A, N28T, N53K, L54M, T59P, A67S, T74N, Q89H, N93S
notes: murine IgG
B34: SCT-Fa005 (antibody, V domains shown)
VH: EVHLQQSVAEVVRPGASVNLSCTVSGFNNKNTYMYWVKQRPEQGLEWIGIIDPANGNVKYAPKFQGKATITADTSSNTAYLQLSSLTSEDTAIYYCARGSSRLYYALDYWGQGTSVTVSS
VL: DIVLTQSPASLAVSLGQRATISCRASESVDSYGNSFMHWYQQKPGQPPKLLIYRASNLESGIPARFSGSGSRTDFTLTIYPVEADDVATYYCQQSNEDPYTFGGGTKLEIK
notes: murine IgG

These binders were tested against T1, Human TIM-3 Human Fc tagged protein (human, fluorescently labeled with HiLyte Fluor 555 (sites not given)) (assay: capture slide probed with labeled TIM-3-Fc;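 also: IgG from single CD138-enriched plasma cells, isolated from lymphocytes, immobilized on a derivatized glass slide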).
T1 construct: Bought construct; also called TIM-3 protein tagged with human Fc; ACROBiosystems catalog no: TM3-H5258

binding result | Binder
binds | B1
binds | B2
binds | B3
binds | B4
binds | B5
binds | B6
binds | B7
binds | B8
binds | B9
binds | B10
binds | B11
binds | B12
binds | B13
binds | B14
binds | B15
binds | B16
binds | B17

binding result | Binder
binds | B18
binds | B19
binds | B20
binds | B21
binds | B22
binds | B23
binds | B24
binds | B25
binds | B26
binds | B27
binds | B28
binds | B29
binds | B30
binds | B31
binds | B32
binds | B33
binds | B34
